According to PMC9482650, “Quantitative fragmentomics allow affinity mapping of interactomes” (Nature Communications, 2022):

T1: LRRC7, Q96NW7
T1 sequence (Q96NW7 1440-1537, limits assumed, looked up): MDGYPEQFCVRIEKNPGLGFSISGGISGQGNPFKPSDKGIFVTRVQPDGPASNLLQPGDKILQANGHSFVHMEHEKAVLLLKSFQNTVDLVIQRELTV

T2: MPP7, Q5T2T1
T2 sequence (Q5T2T1 134-230, limits assumed, looked up): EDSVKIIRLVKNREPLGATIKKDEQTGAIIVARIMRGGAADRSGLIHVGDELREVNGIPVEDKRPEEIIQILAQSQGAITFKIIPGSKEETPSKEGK

T3: DVL3, Q92997
T3 sequence (Q92997 244-331, limits assumed, looked up): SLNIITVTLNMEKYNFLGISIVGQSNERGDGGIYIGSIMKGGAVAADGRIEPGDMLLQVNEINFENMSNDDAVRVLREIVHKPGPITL

T4: APBA3_1, O96018
T4 sequence (O96018 389-490, limits assumed, looked up): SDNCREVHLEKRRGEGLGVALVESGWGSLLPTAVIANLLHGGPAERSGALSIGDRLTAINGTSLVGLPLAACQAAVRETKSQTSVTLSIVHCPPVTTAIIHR

T5: DLG3_3, Q92796
T5 sequence (Q92796 374-475, limits assumed, looked up): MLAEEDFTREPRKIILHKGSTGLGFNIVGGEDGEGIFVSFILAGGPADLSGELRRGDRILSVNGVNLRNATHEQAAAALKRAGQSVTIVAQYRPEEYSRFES

T6: SNTB1, Q13884
T6 sequence (Q13884 107-205, limits assumed, looked up): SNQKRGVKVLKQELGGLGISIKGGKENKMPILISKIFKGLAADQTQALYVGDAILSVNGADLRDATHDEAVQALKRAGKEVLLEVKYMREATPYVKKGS

T7: DFNB31_1, Q9P202
T7 sequence (Q9P202 135-233, limits assumed, looked up): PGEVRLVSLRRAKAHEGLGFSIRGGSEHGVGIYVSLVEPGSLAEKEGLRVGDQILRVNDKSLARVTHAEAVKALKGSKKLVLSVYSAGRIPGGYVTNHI

T8: PDZRN3_1, Q9UPQ7
T8 sequence (Q9UPQ7 244-349, limits assumed, looked up): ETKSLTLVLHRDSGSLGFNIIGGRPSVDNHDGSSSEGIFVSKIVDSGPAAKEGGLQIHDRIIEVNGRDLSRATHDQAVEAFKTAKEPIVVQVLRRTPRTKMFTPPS

T9: MPDZ_5, O75970
T9 sequence (O75970 695-796, limits assumed, looked up): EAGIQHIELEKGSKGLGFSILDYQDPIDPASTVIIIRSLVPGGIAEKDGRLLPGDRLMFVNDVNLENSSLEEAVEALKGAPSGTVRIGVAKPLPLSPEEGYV

T10: RHPN1, Q8TCX5
T10 sequence (Q8TCX5 508-602, limits assumed, looked up): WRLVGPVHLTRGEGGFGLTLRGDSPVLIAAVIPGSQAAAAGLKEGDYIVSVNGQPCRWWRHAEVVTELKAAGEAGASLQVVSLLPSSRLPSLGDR

T11: MPDZ_10, O75970
T11 sequence (O75970 1624-1722, limits assumed, looked up): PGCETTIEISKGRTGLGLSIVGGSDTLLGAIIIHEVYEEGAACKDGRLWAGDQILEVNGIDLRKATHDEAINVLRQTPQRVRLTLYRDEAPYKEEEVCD


Tests used:
Experiment in all cases: holdup assay
Set-up in all cases: key: below the threshold = too weak to quantify, mostly under pKd 3.1 to 4
Settings in all cases: plain residues with an end cap or a label only (N-terminal biotin on a linker: ado-ado)
[1] = target: T1, LRRC7, Q96NW7
[2] = target: T2, MPP7, Q5T2T1
[3] = target: PDLIM1, O00151
Sequence of PDLIM1, O00151 (O00151 1-87): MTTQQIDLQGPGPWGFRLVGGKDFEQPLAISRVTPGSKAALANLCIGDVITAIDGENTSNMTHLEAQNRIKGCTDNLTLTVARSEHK

[4] = target: T3, DVL3, Q92997
[5] = target: Inadl_1, Q8NI35
Sequence of Inadl_1, Q8NI35 (Q8NI35 113-229): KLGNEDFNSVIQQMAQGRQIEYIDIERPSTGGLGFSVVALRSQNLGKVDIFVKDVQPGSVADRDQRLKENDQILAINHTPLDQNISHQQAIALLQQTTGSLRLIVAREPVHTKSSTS

[6] = target: T4, APBA3_1, O96018
[7] = target: TJP1_2, Q07157
Sequence of TJP1_2, Q07157 (Q07157 181-274): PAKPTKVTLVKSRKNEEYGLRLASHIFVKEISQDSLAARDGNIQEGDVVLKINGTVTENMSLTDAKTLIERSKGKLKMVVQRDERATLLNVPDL

[8] = target: GORASP1, Q9BQQ3
Sequence of GORASP1, Q9BQQ3 (Q9BQQ3 1-208): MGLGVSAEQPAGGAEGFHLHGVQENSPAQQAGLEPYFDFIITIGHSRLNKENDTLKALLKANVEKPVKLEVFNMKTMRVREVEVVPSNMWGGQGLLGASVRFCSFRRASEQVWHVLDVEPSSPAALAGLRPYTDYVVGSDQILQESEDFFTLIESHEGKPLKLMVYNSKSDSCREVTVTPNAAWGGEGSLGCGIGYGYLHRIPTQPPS

[9] = target: GORASP2, Q9H8Y8
[10] = target: SCRIB_1, Q14160
Sequence of SCRIB_1, Q14160 (Q14160 718-814): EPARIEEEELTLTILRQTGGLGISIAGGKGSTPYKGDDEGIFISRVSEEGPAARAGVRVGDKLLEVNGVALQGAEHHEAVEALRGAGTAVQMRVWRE

[11] = target: T5, DLG3_3, Q92796
[12] = target: SCRIB_3, Q14160
Sequence of SCRIB_3, Q14160 (Q14160 999-1103): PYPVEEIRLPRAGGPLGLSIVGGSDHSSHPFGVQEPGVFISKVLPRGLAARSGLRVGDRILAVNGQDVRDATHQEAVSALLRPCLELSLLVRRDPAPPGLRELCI

[13] = target: T6, SNTB1, Q13884
[14] = target: T7, DFNB31_1, Q9P202
[15] = target: T8, PDZRN3_1, Q9UPQ7
[16] = target: T9, MPDZ_5, O75970
[17] = target: Inadl_3, Q8NI35
Sequence of Inadl_3, Q8NI35 (Q8NI35 359-469): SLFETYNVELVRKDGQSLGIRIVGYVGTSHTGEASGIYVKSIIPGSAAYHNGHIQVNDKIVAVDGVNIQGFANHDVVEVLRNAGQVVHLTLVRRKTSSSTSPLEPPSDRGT

[18] = target: IL16_1, Q14005
Sequence of IL16_1, Q14005 (Q14005 210-306): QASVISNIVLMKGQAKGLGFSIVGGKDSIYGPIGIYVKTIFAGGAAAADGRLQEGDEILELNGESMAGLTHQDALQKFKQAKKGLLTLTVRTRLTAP

[19] = target: Inadl_4, Q8NI35
Sequence of Inadl_4, Q8NI35 (Q8NI35 547-651): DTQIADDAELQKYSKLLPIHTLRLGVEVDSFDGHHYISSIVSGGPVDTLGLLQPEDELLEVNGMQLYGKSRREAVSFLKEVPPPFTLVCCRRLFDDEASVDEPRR

[20] = target: GRIP2_6, Q9C0E4
Sequence of GRIP2_6, Q9C0E4 (Q9C0E4 648-740): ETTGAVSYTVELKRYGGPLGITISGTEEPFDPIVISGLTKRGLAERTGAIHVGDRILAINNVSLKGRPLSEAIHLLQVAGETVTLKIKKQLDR

[21] = target: T10, RHPN1, Q8TCX5
[22] = target: DLG2_2, Q15700
Sequence of DLG2_2, Q15700 (Q15700 189-283): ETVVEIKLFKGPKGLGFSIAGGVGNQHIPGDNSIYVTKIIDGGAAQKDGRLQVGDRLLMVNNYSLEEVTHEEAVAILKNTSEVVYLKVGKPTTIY

[23] = target: NHERF4_1, Q86UT5-2
Sequence of NHERF4_1, Q86UT5-2 (Q86UT5 other isoform, or with tags, fused parts or gaps): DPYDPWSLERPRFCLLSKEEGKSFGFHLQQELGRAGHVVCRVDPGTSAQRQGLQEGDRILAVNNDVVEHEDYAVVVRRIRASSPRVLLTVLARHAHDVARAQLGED

[24] = target: FRMPD2_1, Q68DX3
Sequence of FRMPD2_1, Q68DX3 (Q68DX3 770-861): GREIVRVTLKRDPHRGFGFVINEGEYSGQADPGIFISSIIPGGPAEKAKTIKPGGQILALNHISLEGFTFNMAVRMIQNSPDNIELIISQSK

[25] = target: T11, MPDZ_10, O75970
[26] = target: NHERF4_4, Q86UT5
Sequence of NHERF4_4, Q86UT5 (Q86UT5 464-550): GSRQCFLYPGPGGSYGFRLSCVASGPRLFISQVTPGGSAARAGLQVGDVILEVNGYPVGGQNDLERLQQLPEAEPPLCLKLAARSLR

Row | Binder | pKd [1] | pKd [2] | pKd [3] | pKd [4] | pKd [5] | pKd [6] | pKd [7] | pKd [8] | pKd [9] | pKd [10] | pKd [11] | pKd [12] | pKd [13] | pKd [14] | pKd [15] | pKd [16] | pKd [17] | pKd [18] | pKd [19] | pKd [20] | also measured
1 | TKGPRGPTRV [SAPCD1, Q5SSQ6] | below the threshold | below the threshold | below the threshold | below the threshold | below the threshold | below the threshold | below the threshold | 3.57 | 3.96 | 3.7 | 4.44 | 3.78 | 4.46 | 3.52 | 4.03 | below the threshold | below the threshold | below the threshold | below the threshold | below the threshold | pKd [21]: below the threshold; pKd [22]: 4.38; pKd [23]: below the threshold; pKd [24]: 4.35; pKd [25]: 4.4; pKd [26]: below the threshold
2 | SNAGNTATKA [NOSTRIN, Q8IVI9] | below the threshold | below the threshold | below the threshold | below the threshold | below the threshold | below the threshold | below the threshold | below the threshold | below the threshold | below the threshold | below the threshold | below the threshold | below the threshold | below the threshold | below the threshold | below the threshold | below the threshold | below the threshold | below the threshold | below the threshold | pKd [21]: below the threshold; pKd [22]: below the threshold; pKd [23]: below the threshold; pKd [24]: below the threshold; pKd [25]: below the threshold; pKd [26]: below the threshold
3 | FNSYSLTGYV [CLDN2, P57739] | below the threshold | below the threshold | below the threshold | 3.81 | below the threshold | below the threshold | below the threshold | 4.14 | 4.36 | below the threshold | below the threshold | 3.53 | 3.61 | below the threshold | below the threshold | below the threshold | 3.57 | 3.8 | below the threshold | below the threshold | pKd [21]: below the threshold; pKd [22]: below the threshold; pKd [23]: 3.9; pKd [24]: 3.49; pKd [25]: below the threshold; pKd [26]: 3.99
4 | QGPVETESVV [SLC45A4, Q5BKX6] | 3.73 | below the threshold | below the threshold | below the threshold | below the threshold | below the threshold | 3.54 | 3.65 | 3.53 | 3.72 | below the threshold | 3.9 | 4.94 | 3.66 | 3.72 | below the threshold | 3.96 | 4.95 | 3.63 | below the threshold | pKd [21]: 4.47; pKd [22]: 4.45; pKd [23]: 3.48; pKd [24]: below the threshold; pKd [25]: below the threshold; pKd [26]: below the threshold
5 | VKPQVSESKL [ACOT8, O14734] | below the threshold | below the threshold | below the threshold | below the threshold | below the threshold | below the threshold | below the threshold | below the threshold | below the threshold | 4.32 | below the threshold | 4.24 | 3.85 | 4.29 | 3.68 | below the threshold | below the threshold | below the threshold | below the threshold | below the threshold | pKd [21]: 4.07; pKd [22]: below the threshold; pKd [23]: 3.78; pKd [24]: below the threshold; pKd [25]: below the threshold; pKd [26]: below the threshold
6 | KKAPTNEFYA [SDC4, P31431] | below the threshold | below the threshold | below the threshold | below the threshold | below the threshold | below the threshold | below the threshold | below the threshold | below the threshold | below the threshold | below the threshold | below the threshold | below the threshold | below the threshold | below the threshold | below the threshold | below the threshold | below the threshold | below the threshold | 3.56 | pKd [21]: below the threshold; pKd [22]: below the threshold; pKd [23]: below the threshold; pKd [24]: 3.51; pKd [25]: below the threshold; pKd [26]: below the threshold
